Source: publication PMC9510110, “Assignment of IVL-Methyl side chain of the ligand-free monomeric human MALT1 paracaspase-IgL3 domain in solution” (Biomolecular Nmr Assignments, 2022)

Target: the molecule itself
Test: anion-exchange chromatography (Q-Sepharose HP); purification step after Ni2+ Sepharose; monomer and dimer forms separated on the column; followed by SEC on Superdex 200 in 20 mM HEPES 7.4, 50 mM NaCl, 1 mM DTT

B1: human MALT1(Casp-IgL3)338–719 (domain or fragment, UniProt Q9UDY8 338-719, looked up)
chain: PLAKDKVALLIGNMNYREHPKLKAPLVDVYELTNLLRQLDFKVVSLLDLTEYEMRNAVDEFLLLLDKGVYGLLYYAGHGYENFGNSFMVPVDAPNPYRSENCLCVQNILKLMQEKETGLNVFLLDMCRKRNDYDDTIPILDALKVTANIVFGYATCQGAEAFEIQHSGLANGIFMKFLKDRLLEDKKITVLLDEVAEDMGKCHLTKGKQALEIRSSLSEKRALTDPIQGTEYSAESLVRNLQWAKAHELPESMCLKFDCGVQIQLGFAAEFSNVMIIYTSIVYKPPEIIMCDAYVTDFPLDLDIDPKDANKGTPEETGSYLVSKDLPKHCLYTRLSSLQKLKEHLVFTVCLSYQYSGLEDTVEDKQEVNVGKPLIAKLDMHR
notes: Expressed with isotope labels (2H, 15N, 13C; Ile/Val/Leu methyl labelling) in M9 medium; also called MALT1 paracaspase-IgL3 domain; source: E. coli T7 express, pET21b, purified (Ni2+ Sepharose, Q-Sepharose HP, SEC Superdex 200); not shown: His6, C-terminal, kept
  binding result: binds
